US6429304 (University of California, dated 2002)

B1: baculovirus-expressed S. purpuratus katanin p80 subunit with N-terminal His(6) tag (other)
chain: HHHHHHMATKRAWKLQELVAHSSNVNCLALGPMSGRVMVTGGEDKKVNLWAVGKQNCIISLSGHTSPVDSVKFNSSEELVVAGSQSGTMKIYDLEPAKIVRTLTGHRNSIRCMDFHPFGEFVASGSTDTNVKLWDVRRKGCIYTYKGHSDQVNMIKFSPDGKWLVTASEDTTIKLWDLTMGKLFQEFKNHTGGVTGIEFHPNEFLLASGSSDRTVQFWDLETFQLVSSTSPGASAVRSISFHPDGSYLFCSSQDMLHAFGWEPIRCFDTFSVGWGKVADTVIASTQLIGASFNATNVSVYVADLSRMSTTGIAQEPQSQPSKTPSGGAEEVPSKPLTASGRKNFVRERPHTTSSKQRQPDVKSEPERQSPTQDEGVKDDDATDIKDPDSYAKIFSPKTRVDHSPERNAQPFPAPLDVPGAQEPEPFKHPPKPAAAAAVAPVSRAPAPSASDWQPAQANPAPNRVPAATKPVPAQEVAPSRKPDPISTIIPSDRNKPANLDMDAFLPPAHAQQAPRVNAPASRKQSDSERIEGLRKGHDSMCQVLSSRHRNLDVVRAIWTAGDAKTSVESVVNMKDQAILVDILNIMLLKKSLWNLDMCVVVLPRLKELLSSKYENYVHTSCACLKLILKNFTSLFNQNIKCPPSGIDITREERYNKCSKCYSYLIATRGYVEEKQHVSGKLGSSFRELHLLLDQLE
notes: Expressed from pFastBac HT in Sf9 cells; also called p80 katanin; recombinant p80
B3: baculovirus-expressed S. purpuratus katanin p60 subunit with N-terminal His(6) tag (enzyme)
chain: HHHHHHMSVDEICENTKMGREYALLGNYETSLVYYQGVLQQIQKLLTSVHEPQRKHQWQTIRQELSQEYEHVKNITKTLNGFKSEPAAPEPAPNHRAAPFSHHQHAAKPAAAEPARDPDVWPPPTPVDHRPSPPYQRAARKDPPRRSEPSKPANRAPGNDRGGRGPSDRRGDARSGGGGRGGARGSDKDKNRGGKSDKDKKAPSGEEGDEKKFDPAGYDKDLVENLERDIVQRNPNVHWADIAGLTEAKRLLEEAVVLPLWMPDYFKGIRRPWKGVLMVGPPGTGKTMLAKAVATECGTTFFNVSSASLTSKYHGESEKLVRLLFEMARFYAPSTIFIDEIDSICSKRGTGSEHEASRRVKSELLIQMDGVSGPSAGEESSKMVMVLAATNFPWDIDEALRRRLEKRIYIPLPEIDGREQLLRINLKEVPLADDIDLKSIAEKMDGYSGADITNVCRDASMMAMRRRIQGLRPEEIRHIPKEELNQPSTPADFLLALQKVSKSVGKEDLVKYMAWMEEFGSV
notes: Expressed from pFastBac HT in Sf9 cells; also called p60 katanin; recombinant p60

Key:
[1] = biological target: B3; test: baculovirus co-expression, metal affinity purification, Coomassie staining
Description: We therefore sought to express the two subunits together and separately and then test their enzymatic activities.

[2] = biological target: T1, native S. purpuratus katanin p80 subunit (sea urchin cytosol) (Strongylocentrotus purpuratus, UniProt O61585 1-690); test: immunoprecipitation from sea urchin cytosol
T1 construct: Endogenous protein of sea urchin eggs
T1 sequence: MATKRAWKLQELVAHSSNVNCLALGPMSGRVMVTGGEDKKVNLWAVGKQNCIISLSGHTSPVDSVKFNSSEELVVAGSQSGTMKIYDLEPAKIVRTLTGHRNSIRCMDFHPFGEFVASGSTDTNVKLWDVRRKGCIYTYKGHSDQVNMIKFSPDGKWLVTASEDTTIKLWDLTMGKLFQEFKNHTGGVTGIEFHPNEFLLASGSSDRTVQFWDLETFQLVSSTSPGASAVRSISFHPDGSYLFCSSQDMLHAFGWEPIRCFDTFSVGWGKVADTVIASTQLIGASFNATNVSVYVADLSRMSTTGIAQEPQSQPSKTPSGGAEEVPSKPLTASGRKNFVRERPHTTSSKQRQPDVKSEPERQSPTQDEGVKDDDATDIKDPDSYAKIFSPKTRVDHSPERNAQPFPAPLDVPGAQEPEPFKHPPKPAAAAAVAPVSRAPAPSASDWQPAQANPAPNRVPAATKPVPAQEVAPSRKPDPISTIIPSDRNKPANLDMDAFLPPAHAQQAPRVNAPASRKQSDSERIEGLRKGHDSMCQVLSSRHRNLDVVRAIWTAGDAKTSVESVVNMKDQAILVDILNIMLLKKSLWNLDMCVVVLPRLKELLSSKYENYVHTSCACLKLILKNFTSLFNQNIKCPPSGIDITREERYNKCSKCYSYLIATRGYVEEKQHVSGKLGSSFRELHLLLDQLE

[3] = biological target: B1; test: co-immunoprecipitation from insect cells coinfected with p60 and p80 baculoviruses
Procedure: Proteins bound to the resin were analyzed by SDS-PAGE followed by staining with Coomassie.
The immunoprecipitations were incubated at 4° C. for 1–2 hr, washed five times with 1 ml of ice-cold TBST, and eluted in SDS-containing sample buffer.

[4] = biological target: the molecule itself; test: rotary-shadowing electron microscopy of recombinant p60 on mica
Procedure: Proteins were adsorbed to mica, freeze-dried, and platinum replicated according to established procedures (Heuser (1989) *J. Electron Microsc. Technique* 13):, 244–263; Heuser (1983) *J. Mol. Biol.* 169: 155–195). Sample preparation and imaging were similar to that used in the imaging of NSF (Hanson et al. (1997) *Cell* 90: 523–535), except that mica flakes were washed with a buffer consisting of 10 mM K-HEPES (pH 7.5), 2 mM MgCl_2, 1 mM nucleotide (ATP or ATP-γ-S).

[5] = biological target: T2, in vitro translated S. purpuratus p60 katanin with 37 amino acid N-terminal S-Tag (Strongylocentrotus purpuratus, UniProt O61577 1-516); test: co-translation in rabbit reticulocyte lysate, co-immunoprecipitation with anti-p60 antibody
T2 construct: Made in a rabbit reticulocyte coupled transcription-translation reaction; not shown: 37 amino acid N-terminal S-Tag from pCITE-4a+ (Novagen)
Procedure: (§1) In vitro synthesis of proteins directly from plasmid DNAs was accomplished using the Single Tube Protein System 2, T7 (Novagen). […] For immunoprecipitations, lysates were incubated on ice with Pansorbin (Calbiochem)-antibody complexes, washed in NET buffer (50 mM Tris-Cl (pH 7.5), 150 mM NaCl, 0.1% Nonidet P40, 1 mM EDTA (pH 8.0), 0.25% gelatin and 0.02% sodium azide), then resuspended in SDS-PAGE sample buffer. In vitro translation products in both the pellets and supernatants from the immunoprecipitations were resolved by SDS-PAGE, transferred to nitrocellulose, probed with S-protein HRP conjugate (Novagen) and detected by chemiluminescence.

[6] = biological target: T2, in vitro translated S. purpuratus p60 …; test: co-translation in rabbit reticulocyte lysate, immunoprecipitation with anti-p60 antibody
Procedure: as §1

## B1
[1]
  p60:p80 molar ratio in the purified co-expressed protein: ~0.9 mol p80 per mol p60

B2: native S. purpuratus katanin p60 subunit (unfertilized egg extract / cytosol) (enzyme)
chain: MSVDEICENTKMGREYALLGNYETSLVYYQGVLQQIQKLLTSVHEPQRKHQWQTIRQELSQEYEHVKNITKTLNGFKSEPAAPEPAPNHRAAPFSHHQHAAKPAAAEPARDPDVWPPPTPVDHRPSPPYQRAARKDPPRRSEPSKPANRAPGNDRGGRGPSDRRGDARSGGGGRGGARGSDKDKNRGGKSDKDKKAPSGEEGDEKKFDPAGYDKDLVENLERDIVQRNPNVHWADIAGLTEAKRLLEEAVVLPLWMPDYFKGIRRPWKGVLMVGPPGTGKTMLAKAVATECGTTFFNVSSASLTSKYHGESEKLVRLLFEMARFYAPSTIFIDEIDSICSKRGTGSEHEASRRVKSELLIQMDGVSGPSAGEESSKMVMVLAATNFPWDIDEALRRRLEKRIYIPLPEIDGREQLLRINLKEVPLADDIDLKSIAEKMDGYSGADITNVCRDASMMAMRRRIQGLRPEEIRHIPKEELNQPSTPADFLLALQKVSKSVGKEDLVKYMAWMEEFGSV
notes: Endogenous protein of sea urchin eggs; also called 60 kDa polypeptide
[2]
  binding result: binds

## B3
[3]
  binding result: binds
[4]
  binding result: binds

B4: p80 delta 1-302 (S. purpuratus p80 katanin with the entire WD40 domain deleted), in vitro translated with N-terminal S-Tag (other)
chain: TTGIAQEPQSQPSKTPSGGAEEVPSKPLTASGRKNFVRERPHTTSSKQRQPDVKSEPERQSPTQDEGVKDDDATDIKDPDSYAKIFSPKTRVDHSPERNAQPFPAPLDVPGAQEPEPFKHPPKPAAAAAVAPVSRAPAPSASDWQPAQANPAPNRVPAATKPVPAQEVAPSRKPDPISTIIPSDRNKPANLDMDAFLPPAHAQQAPRVNAPASRKQSDSERIEGLRKGHDSMCQVLSSRHRNLDVVRAIWTAGDAKTSVESVVNMKDQAILVDILNIMLLKKSLWNLDMCVVVLPRLKELLSSKYENYVHTSCACLKLILKNFTSLFNQNIKCPPSGIDITREERYNKCSKCYSYLIATRGYVEEKQHVSGKLGSSFRELHLLLDQLE
notes: the residues kept are derived from the deletion named; also called truncated p80; delta 1-302 derivative of p80; not shown: 37 amino acid N-terminal S-Tag from pCITE-4a+ (Novagen)
[5]
  binding result: binds

B5: p80 delta 303-690 (C-terminal truncation of S. purpuratus p80 katanin containing only the WD40 domain), in vitro translated with N-terminal S-Tag (other)
chain: MATKRAWKLQELVAHSSNVNCLALGPMSGRVMVTGGEDKKVNLWAVGKQNCIISLSGHTSPVDSVKFNSSEELVVAGSQSGTMKIYDLEPAKIVRTLTGHRNSIRCMDFHPFGEFVASGSTDTNVKLWDVRRKGCIYTYKGHSDQVNMIKFSPDGKWLVTASEDTTIKLWDLTMGKLFQEFKNHTGGVTGIEFHPNEFLLASGSSDRTVQFWDLETFQLVSSTSPGASAVRSISFHPDGSYLFCSSQDMLHAFGWEPIRCFDTFSVGWGKVADTVIASTQLIGASFNATNVSVYVADLSRMS
notes: the residues kept are derived from the deletion named; also called delta 303-690 derivative of p80; not shown: 37 amino acid N-terminal S-Tag from pCITE-4a+ (Novagen)
[6]
  binding result: no binding
